Columns and labels:
[1] = molecular target: T1, EZH2 H689A mutant (catalytically inactive mutant, MT) (UniProt Q15910 1-746); test: binding of EZH2 WT or MT with RORα in cell extracts (FIG. 15)
T1 construct: also called EZH2 MT; H689A mutant (MT) of EZH2

[2] = molecular target: T2, DDB1-CUL4-associated factor 1 adaptor (DCAF1) (UniProt Q9Y4B6 1-1507); test: co-immunoprecipitation, HEK-293 cells with 20 µM MG132 (FIG. 23 legend)
T2 construct: Endogenous or overexpressed in HEK-293 cells, in cell extracts; also called VprBP
T2 sequence (Q9Y4B6 whole entry): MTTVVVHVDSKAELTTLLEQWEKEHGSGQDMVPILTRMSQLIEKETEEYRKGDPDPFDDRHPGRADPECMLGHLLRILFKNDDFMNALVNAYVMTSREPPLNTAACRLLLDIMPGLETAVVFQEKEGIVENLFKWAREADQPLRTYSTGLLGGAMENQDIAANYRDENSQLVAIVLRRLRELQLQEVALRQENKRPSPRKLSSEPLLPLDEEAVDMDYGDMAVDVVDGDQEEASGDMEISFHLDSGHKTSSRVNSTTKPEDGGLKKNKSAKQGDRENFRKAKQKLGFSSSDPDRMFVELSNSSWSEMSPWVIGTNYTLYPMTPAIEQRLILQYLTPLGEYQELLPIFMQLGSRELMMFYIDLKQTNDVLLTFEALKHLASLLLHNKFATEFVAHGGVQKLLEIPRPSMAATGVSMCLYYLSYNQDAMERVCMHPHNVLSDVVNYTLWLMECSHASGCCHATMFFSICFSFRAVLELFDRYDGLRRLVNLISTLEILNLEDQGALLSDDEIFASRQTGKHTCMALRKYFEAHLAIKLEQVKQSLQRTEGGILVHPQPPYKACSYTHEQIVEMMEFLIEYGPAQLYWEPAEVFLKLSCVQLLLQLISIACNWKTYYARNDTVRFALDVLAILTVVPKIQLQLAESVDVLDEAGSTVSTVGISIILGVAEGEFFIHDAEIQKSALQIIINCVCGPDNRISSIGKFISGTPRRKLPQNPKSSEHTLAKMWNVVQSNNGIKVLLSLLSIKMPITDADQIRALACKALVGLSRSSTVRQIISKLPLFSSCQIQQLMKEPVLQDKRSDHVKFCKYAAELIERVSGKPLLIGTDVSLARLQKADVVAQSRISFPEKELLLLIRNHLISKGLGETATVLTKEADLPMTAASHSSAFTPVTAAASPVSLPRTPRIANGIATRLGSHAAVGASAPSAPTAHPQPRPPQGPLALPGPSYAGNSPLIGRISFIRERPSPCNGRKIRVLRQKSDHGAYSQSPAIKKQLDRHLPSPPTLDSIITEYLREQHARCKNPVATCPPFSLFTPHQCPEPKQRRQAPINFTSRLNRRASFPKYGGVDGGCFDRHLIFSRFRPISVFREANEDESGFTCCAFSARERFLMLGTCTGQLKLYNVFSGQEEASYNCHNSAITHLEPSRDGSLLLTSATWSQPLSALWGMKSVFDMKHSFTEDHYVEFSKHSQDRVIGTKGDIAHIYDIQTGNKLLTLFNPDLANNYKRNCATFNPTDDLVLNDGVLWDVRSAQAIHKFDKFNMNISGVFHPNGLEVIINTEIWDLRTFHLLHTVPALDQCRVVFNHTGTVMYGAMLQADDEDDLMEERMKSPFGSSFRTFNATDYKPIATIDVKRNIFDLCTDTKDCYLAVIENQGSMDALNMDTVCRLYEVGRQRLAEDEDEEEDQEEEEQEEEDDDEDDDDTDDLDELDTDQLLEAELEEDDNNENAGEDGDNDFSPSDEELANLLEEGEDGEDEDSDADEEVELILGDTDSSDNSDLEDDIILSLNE

[3] = molecular target: T3, Enhancer of Zeste Homolog 2 lysine methyltransferase (EZH2) wild type (UniProt Q15910 1-746); test: co-immunoprecipitation of endogenous proteins, HEK-293 cells with MG132 (FIG. 3)
T3 construct: Endogenous (HEK-293) or overexpressed, in cell extracts; also called EZH2 WT
T3 sequence (Q15910 whole entry): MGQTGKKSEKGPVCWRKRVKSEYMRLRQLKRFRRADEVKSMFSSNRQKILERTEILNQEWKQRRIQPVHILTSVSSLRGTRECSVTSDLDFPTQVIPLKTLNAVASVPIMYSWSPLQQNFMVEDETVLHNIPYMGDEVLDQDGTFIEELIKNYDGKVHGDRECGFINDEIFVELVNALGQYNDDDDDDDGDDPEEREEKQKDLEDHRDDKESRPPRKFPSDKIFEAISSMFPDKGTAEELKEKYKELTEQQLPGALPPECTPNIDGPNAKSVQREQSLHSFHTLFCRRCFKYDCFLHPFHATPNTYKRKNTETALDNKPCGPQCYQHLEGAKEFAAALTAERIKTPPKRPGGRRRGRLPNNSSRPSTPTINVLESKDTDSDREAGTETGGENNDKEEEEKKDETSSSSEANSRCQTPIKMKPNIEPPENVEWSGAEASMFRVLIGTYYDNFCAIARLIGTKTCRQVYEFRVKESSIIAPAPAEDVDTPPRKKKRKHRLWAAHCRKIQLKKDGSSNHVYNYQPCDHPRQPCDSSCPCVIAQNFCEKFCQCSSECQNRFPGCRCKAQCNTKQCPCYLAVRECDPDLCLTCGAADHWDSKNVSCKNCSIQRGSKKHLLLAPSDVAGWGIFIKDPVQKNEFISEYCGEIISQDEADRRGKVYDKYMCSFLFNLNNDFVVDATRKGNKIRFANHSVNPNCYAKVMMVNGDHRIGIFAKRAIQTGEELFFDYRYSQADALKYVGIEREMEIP

Measured: binding result

T1 sequence (Q15910 whole entry H689A): as the sequence (Q15910 whole entry) above, with H689A counted along it

B1: retinoic acid-related orphan nuclear receptor α (RORα) wild type (receptor, UniProt P35398-2 1-523, looked up)
chain: MESAPAAPDPAASEPGSSGADAAAGSRETPLNQESARKSEPPAPVRRQSYSSTSRGISVTKKTHTSQIEIIPCKICGDKSSGIHYGVITCEGCKGFFRRSQQSNATYSCPRQKNCLIDRTSRNRCQHCRLQKCLAVGMSRDAVKFGRMSKKQRDSLYAEVQKHRMQQQQRDHQQQPGEAEPLTPTYNISANGLTELHDDLSNYIDGHTPEGSKADSAVSSFYLDIQPSPDQSGLDINGIKPEPICDYTPASGFFPYCSFTNGETSPTVSMAELEHLAQNISKSHLETCQYLREELQQITWQTFLQEEIENYQNKQREVMWQLCAIKITEAIQYVVEFAKRIDGFMELCQNDQIVLLKAGSLEVVFIRMCRAFDSQNNTVYFDGKYASPDVFKSLGCEDFISFVFEFGKSLCSMHLTEDEIALFSAFVLMSADRSWLQEKVKIEKLQQKIQLALQHVLQKNHREDGILTKLICKVSTLRALCGRHTEKLMAFKAIYPDIVRLHFPPLYKELFTSEFEPAMQIDG
modifications: K38 mono-methylated by EZH2 in cells (the fraction methylated is not stated)
notes: Endogenous protein of HEK-293 cells in some co-immunoprecipitations, 3x-Flag-tagged (3x-Flag-CMV-RORα) in others; the tag is not written as a piece; also called RORα WT; Flag-RORα
binds: all assays above

Source: US20150105326A1 (SEOUL NATIONAL UNIVERSITY SNU R AND D FOUNDATION, published 2015)
